Columns and labels:
[1] = Accelerated thermal stability assay, HP-SEC; type: physicochemical; conditions: 2 weeks, 1 mg/ml in PBS
Description: IgG were diluted to 1 mg/ml in PBS then incubated at 4° C. or 45° C. for 2 weeks then filtered using filter spin columns (Millipore, UFC30HVNB). High performance-size exclusion chromatography (HP-SEC) was performed by loading 70 μl of IgG onto a TSKgel G3000SWXL; 5 μm, 7.8 mm×300 mm column using a flow rate of 1 ml/min and 0.1 M sodium phosphate dibasic anhydrous and 0.1 M sodium sulphate, pH 6.8 as the isocratic running buffer. Larger molecules are excluded from the pores of the size exclusion column to a greater extent than smaller molecules, and therefore elute earlier. Peaks eluting earlier than the monomer peak are recorded as aggregates. Peaks eluting after the monomer peak (excluding the buffer-related peak) are recorded as fragments. In parallel, antibodies were profiled in the HTRF epitope competition assay for changes in potency.

human FRα [2] = target: T1, human FRα (Homo sapiens, UniProt P15328); assay: HTRF epitope competition assay with Comparator 2 IgG; type: binding; conditions: n > 2; human IgG1 format
T1 construct: CD33 leader (signal peptide) (N, cleaved yes); made in house; host or cells: in-house suspension-adapted CHO cell line
T1 sequence (P15328 with tags, fused parts or gaps): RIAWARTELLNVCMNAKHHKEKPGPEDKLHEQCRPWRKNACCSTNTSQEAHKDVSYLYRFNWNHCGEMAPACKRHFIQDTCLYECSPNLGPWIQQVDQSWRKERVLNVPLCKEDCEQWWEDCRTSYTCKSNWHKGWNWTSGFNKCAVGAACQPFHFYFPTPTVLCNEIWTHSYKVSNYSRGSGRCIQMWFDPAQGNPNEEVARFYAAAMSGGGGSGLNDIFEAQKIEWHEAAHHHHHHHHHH
Description: (§1) HTRF epitope competition assays were set up using a titration of test IgG, 1 nM streptavidin cryptate, biotinylated human FRα and DyLight 650 labelled IgG to assay volume of 10 μl. For the Comparator Antibody 1 and Comparator Antibody 2 assays, 0.5 nM biotinylated human FRα and 0.5 nM DyLight 650 labelled Comparator Antibody 1 or Comparator Antibody 2 was used. […] Assay plates were incubated for 3-4 h at room temperature prior to fluorescence measurement.

cyno FRα [3] = assay: HTRF antigen (IgG) binding assay; set-up: species or system cynomolgus monkey; conditions: hybridoma supernatant, 1 nM biotinylated antigen; binder >30% delta F
Sequence of cyno FRα (as listed by the source): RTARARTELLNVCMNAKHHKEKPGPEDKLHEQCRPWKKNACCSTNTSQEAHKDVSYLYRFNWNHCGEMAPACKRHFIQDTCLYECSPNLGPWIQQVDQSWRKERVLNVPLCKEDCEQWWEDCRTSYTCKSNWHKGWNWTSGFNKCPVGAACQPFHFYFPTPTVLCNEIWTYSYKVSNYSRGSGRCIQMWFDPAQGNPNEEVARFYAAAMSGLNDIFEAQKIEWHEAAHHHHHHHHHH
Description: (§2) The negative control ratio was derived from nonspecific binding (NSB) control wells. Curves were analysed using GraphPad Prism software using a four-parameter logistic curve-fitting equation.

cyno FRα [4] = assay: Biacore T200 surface plasmon resonance affinity; type: binding, cynomolgus monkey; conditions: SPR 25° C.
Description: (§3) Protein A was covalently immobilised to a CM5 chip surface using standard amine coupling techniques at a concentration of 50 μg/ml in 10 mM Sodium acetate, pH 4.0. The antibody was captured onto the Protein A surface in HBS-EP+ buffer, pH 7.4 at 10 μl/min to enable FRα ECD binding. The FRα ECD was serially diluted (0.4 nM-100 nM human FRα ECD; 0.8 nM-200 nM cyno FRα ECD; 30 nM-4000 nM mouse FRα ECD and rat FRα ECD) in HBS-EP+ buffer, pH 7.4 and flowed over the chip at 50 μl/min, with 2 minutes association and 8 minutes dissociation. The chip surface was fully regenerated with pulses of 3 M MgCl2 to remove captured antibody together with any bound FRα ECD. Multiple buffer-only injections were made under the same conditions to allow for double reference subtraction of the final sensorgram sets, which were analysed using Biacore T200 Evaluation Software to derive equilibrium dissociation constants.

human FRα [5] = target: T1, human FRα; assay: Biacore T200 surface plasmon resonance affinity; type: binding; conditions: SPR 25° C.
Description: as §3

human FRα [6] = target: T1, human FRα; assay: HTRF epitope competition assay with Comparator 3 IgG; type: binding; conditions: n > 2; human IgG1 format
Description: as §1

[7] = Pharmacokinetics of anti-FRα antibodies in wild-type SCID mice; type: in vivo, mouse; conditions: 5 mg/kg iv bolus, total antibody
Description: Pharmacokinetic parameters were determined using Phoenix 64 software (Certara).
Plasma antibody concentrations were determined by the universal ELISA IgG assay.

[8] = Hydrophobic interaction chromatography (HIC) HPLC; type: physicochemical; conditions: higher retention = more hydrophobic
human FRα [9] = target: T1, human FRα; assay: HTRF epitope competition assay with Comparator 1 IgG; type: binding; conditions: n > 2; human IgG1 format
Description: as §1

human FRα [10] = target: T1, human FRα; assay: HTRF antigen (IgG) binding assay; conditions: hybridoma supernatant, 1 nM biotinylated antigen; binder >30% delta F
Description: as §2

human FRγ = target: T2, human FRγ (Homo sapiens, UniProt P41439); assay: HTRF antigen (IgG) binding assay; conditions: hybridoma supernatant, 1 nM biotinylated antigen; binder >30% delta F
T2 construct: CD33 signal peptide (N, cleaved yes); made in house
T2 sequence (P41439 with tags, fused parts or gaps): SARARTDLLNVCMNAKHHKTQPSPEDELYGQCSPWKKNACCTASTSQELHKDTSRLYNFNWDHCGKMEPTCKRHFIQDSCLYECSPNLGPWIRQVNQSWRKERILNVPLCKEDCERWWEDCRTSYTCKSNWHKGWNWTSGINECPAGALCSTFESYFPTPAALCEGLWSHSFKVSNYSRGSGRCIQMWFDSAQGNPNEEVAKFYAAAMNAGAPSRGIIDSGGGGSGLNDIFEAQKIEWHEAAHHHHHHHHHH
Description: as §2

human FRβ = target: T3, human FRβ (Homo sapiens, UniProt P14207); assay: HTRF antigen (IgG) binding assay; conditions: hybridoma supernatant, 1 nM biotinylated antigen; binder >30% delta F
T3 construct: CD33 signal peptide (N, cleaved yes); made in house
T3 sequence (P14207 with tags, fused parts or gaps): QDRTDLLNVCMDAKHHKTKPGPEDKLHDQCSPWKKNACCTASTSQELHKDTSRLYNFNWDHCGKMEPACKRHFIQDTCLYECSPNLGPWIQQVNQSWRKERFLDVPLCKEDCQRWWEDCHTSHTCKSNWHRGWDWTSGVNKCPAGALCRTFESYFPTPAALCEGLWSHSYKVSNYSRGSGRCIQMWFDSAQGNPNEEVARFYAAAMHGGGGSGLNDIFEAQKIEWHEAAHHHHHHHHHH
Description: as §2

mouse FRα = target: T4, mouse FRα (Mus musculus, UniProt P35846); assay: HTRF antigen (IgG) binding assay; conditions: hybridoma supernatant, 1 nM biotinylated antigen; binder >30% delta F
T4 construct: CD33 signal peptide (N, cleaved yes); made in house
T4 sequence (P35846 with tags, fused parts or gaps): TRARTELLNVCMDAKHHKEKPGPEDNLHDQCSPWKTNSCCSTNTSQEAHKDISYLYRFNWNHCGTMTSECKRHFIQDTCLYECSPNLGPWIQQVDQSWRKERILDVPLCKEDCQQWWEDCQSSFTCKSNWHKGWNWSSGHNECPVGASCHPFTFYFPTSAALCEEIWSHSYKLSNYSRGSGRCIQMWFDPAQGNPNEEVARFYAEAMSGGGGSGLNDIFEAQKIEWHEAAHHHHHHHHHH
Description: as §2

Molecule	HP SEC % monomer ([1]; 4° C.) [%]	HP SEC % monomer ([1]; 45° C.) [%]	HTRF epitope competition assay, geomean IC50 (M), Comparator 2 IgG (human FRα [2])	HTRF IgG binding assay (% Delta F) Cyno FRα (cyno FRα [3]) [% Delta F]	ka (cyno FRα [4]) [M⁻¹ s⁻¹]	kd (cyno FRα [4]) [s⁻¹]	ka (human FRα [5]) [M⁻¹ s⁻¹]	kd (human FRα [5]) [s⁻¹]	HTRF epitope competition assay, geomean IC50 (M), Comparator 3 IgG (human FRα [6])	AUClast [7] [µg·days/mL]	CL [7] [mL/day/kg]	Cmax [7] [µg/mL]	Vss [7] [L/kg]	t1/2 [7] [days]	Retention time by HIC-HPLC [8] [min]	HTRF epitope competition assay, geomean IC50 (M), Comparator 1 IgG (human FRα [9])	HTRF IgG binding assay (% Delta F) Human FRα (human FRα [10]) [% Delta F]	HTRF IgG binding assay (% Delta F) Human FRγ (human FRγ) [% Delta F]	HTRF IgG binding assay (% Delta F) Human FRβ (human FRβ) [% Delta F]	HTRF IgG binding assay (% Delta F) Mouse FRα (mouse FRα) [% Delta F]
AB1370035: anti-FRα fully human IgG1 antibody; VH SEQ ID NO: 41, VL SEQ ID NO: 42 (antibody, V domains shown) VH: QVQLQQSGPGLVKPSQTLSLTCAISGDSVSSNSAAWNWIRQSPSRGLEWLGRTYYRSNWYNDYTLSVKSRITVNPDTSKNQFSLQLNSVTPEDTAVYYCVRGVGRFDSWGQGTLVTVSS VL: DIQMTQSPSTLSASVGDRVIITCRASQSISSWLAWYQQKPGKAPKLLIYKASSLESGVPSRFSGSGSGTEFTLTITSLQPDDFASYYCQEYKTYSIFTFGPGTKVDIK	100	97.3	inhibited	141.47	475000	0.000508	568000	0.000527	inhibited	455	5.6	73.2	0.16	19.5	2.25	inhibited	225.19	9.2	−3.26	−5.22
AB1370026: anti-FRα fully human IgG1 antibody; VH SEQ ID NO: 39, VL SEQ ID NO: 40 (antibody, V domains shown) VH: EVQLVESGGGLVKPGGSLRLSCAASGFTFSSYAMSWVRQAPGKGLEWVSSISSGRSYIYYADSVKGRFTISRDNAKNSLYLKMNSLRDEDTAVYYCAREMQQLALDYWGQGTLVTVSS VL: DIQMTQSPSSLSASVGDRVTITCRASQGISNFLAWFQQAPGKAPKSLIYAASSLQSGVPSKFSGSGSGTDFTLTISSLQPEDFATYYCQQYNSYPFTFGQGTKLEIK	100	97.3	inhibited	213.68	195000	0.000342	279000	0.000354	no inhibition	553	5.3	91.7	0.124	16.6	1.96	inhibited	270.58	1.31	−0.38	1.63
AB1370083: anti-FRα fully human IgG1 antibody; VH SEQ ID NO: 43, VL SEQ ID NO: 44 (antibody, V domains shown) VH: EVQLVESGGGLVKPGGSLRLSCAASGFTFSSYNMNWVRQAPGKGLEWVSSISSGSSYIYYADSMKGRFTISRDNAKNSLFLQMNSLRAEDTAVYYCARGMTTLTFDYWGQGTLVTVSS VL: DIQMTQSPSSLSASVGDRVTITCRASQGISTFLAWFQQKPGKAPKSLIYAASSLQSGVPSKFSGSGSETDFTLTISSLQPEDFATYYCQQYISYPLTFGGGTKVEIK	99.6	98.3	inhibited	85.16	101000	0.00016	145000	0.000135	no inhibition	430	8.6	86.0	0.132	11.0	2.27	inhibited	139.98	−2.92	3.81	−3.65
AB1370095: anti-FRα fully human IgG1 antibody; VH SEQ ID NO: 45, VL SEQ ID NO: 46 (antibody, V domains shown) VH: EVQLVESGGGLVKPGGSLRLSCAASGFTFSSYSMNWVRQAPGKGLEWVSSISSRSSYVYYADSVKGRFTISRDNAKNSLYLQMNSLRAEDTAVYYCARGMTTLTFDYWGQGTLVTVSS VL: DIQMTQSPSSLSASVGDRVTITCRASQGISSFLAWFQQKPGKAPKSLIYAASSLQSGVPSKFSGSGSGTDFTLTISSLQPEDFATYYCQQYNSYPLTFGGGTKVEIK	99.2	96.6	inhibited	85.33	95800	0.00183	95700	0.00129	no inhibition	646	6.6	123.2	0.071	7.8	2.12	inhibited	126.25	−1.17	−5.87	−5.66
